What is called stoichiometry N is a count of units in the complex or per binding partner.

The results in this text go back to article PMC3561135.

Holding throughout (assay): SEC; size exclusion chromatography of the purified six-His-tagged recombinant proteins; data not shown; conditions not given
(In gel filtration, larger molecules generally elute earlier.)

Test [1] addresses Schistosoma mansoni phytochelatin synthase, N-truncated protein (PCS66-591) (Schistosoma mansoni).
Test [2] deals with Schistosoma mansoni phytochelatin synthase, full length protein (PCS1-591) (Schistosoma mansoni).
Test [3] addresses Schistosoma mansoni phytochelatin synthase, N- and C-truncated form (PCS66-300) (Schistosoma mansoni).

With “Schistosoma mansoni phytochelatin synthase, N-truncated protein (PCS66-591) (domain or fragment)”, the stoichiometry N in test [1] is 2.

On to “Schistosoma mansoni phytochelatin synthase, full length protein (PCS1-591) (enzyme)”, for which the stoichiometry N in test [2] came out at 2.

With “Schistosoma mansoni phytochelatin synthase, N- and C-truncated form (PCS66-300) (domain or fragment)”, the stoichiometry N in test [3] was 2.
